Measurements as given in publication PMC4864278.

Tests used:
[1] = target: TRIM32 extended RING domain (UniProt Q13049); assay: SAXS; batch SAXS, Diamond Light Source beamline B21; at least three dilutions of each construct; concentrations as in Table 2
[2] = target: TRIM32 extended RING domain (UniProt Q13049); assay: SEC-MALS; SEC-MALLS, Superdex 75 or Superdex 200 10/300 GL, 25°C, 20 mM HEPES pH 7.5, 100 mM NaCl (TRIM32) or 150 mM NaCl (TRIM25), 0.5 mM TCEP, 3 mM NaN3; samples run over a range of concentrations

TRIM32 extended RING domain (from UniProt Q13049 1-93) (domain or fragment), sequence (Q13049 1-93): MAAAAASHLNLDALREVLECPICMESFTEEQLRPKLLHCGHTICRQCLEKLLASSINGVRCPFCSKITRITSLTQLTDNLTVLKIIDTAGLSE

TRIM32 extended RING domain (from UniProt Q13049 1-93) (domain or fragment)
stoichiometry N [1]: 2 | stoichiometry N [2]: 2
